Reference: US20260184782A1 (TWIST BIOSCIENCE, published 2026)
Positions count from the first letter of the chain named.

T1: recombinant human TIGIT (human, UniProt Q495A1 22-141, limits assumed)
T1 construct: recombinant human TIGIT used in Carterra SPR; also called hTIGIT
T1 sequence (looked up): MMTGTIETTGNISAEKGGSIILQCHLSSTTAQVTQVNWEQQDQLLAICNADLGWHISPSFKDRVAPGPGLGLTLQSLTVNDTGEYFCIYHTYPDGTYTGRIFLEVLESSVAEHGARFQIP

T2: human TIGIT-Fc (human, UniProt Q495A1 22-141, limits assumed)
T2 construct: not shown: Fc; not described
T2 sequence (looked up): T1 sequence (looked up)

B1: TIGIT-SC148 (Fc fusion)
VHH: EVQLVESGGGLVQPGGSLRLSCAASGDIGSINAMGWFRQAPGKEREFVAGIWRSGNLKAYADSVKGRFTISADNSKNTAYLQMSSLKPEDTAVYYCARGNIVVVPAAFVIWFDPWGQGTLVTVSS
notes: VHH-Fc fusion in assay
B2: TIGIT-SC152 (Fc fusion)
VHH: EVQLVESGGGLVQPGGNLRLSCAASGSTFSKHHAMGWFRQAPGKEREFVAGIIRSGTLKAYADSVKGRFTISADNSKNTAYLQMNSLKPEDTAVYYCTRGRAARHNLWYFDLWGQGTLVTVSS
notes: VHH-Fc fusion in assay
B3: TIGIT-SC202 (Fc fusion)
VHH: EVQLVESGGGLVQPGGSLRLSCAASGFTFSPSWMGWFRQAPGKEREWVASVLRGGYTWYADSVKGRFTISADNSKNTAYLQMNSLKPEDTAVYYCTTDGGYSGIVGFAWGQGTLVTVSS
notes: VHH-Fc fusion in assay
B4: TIGIT-SC146 (Fc fusion)
VHH: EVQLVESGGGLVQPGGGLRLSCAASGFTLENNMMGWFRQAPGKEREFVAAISASGTLRAYADSVKGRFTISADNSKNTAYLQMNSLKPEDTAVYYCAKGGQAGPMAFYFDYWGQGTLVTVSS
notes: VHH-Fc fusion in assay
B5: TIGIT-SC141 (Fc fusion)
VHH: EVQLVESGGGLVQPGGSLRLSCAASGNAFSSSVMGWFRQAPGKEREFVAGIWRSGSLKAYADSVKGRFTISADNSKNTAYLQMNSLRPEDTAVYYCARAYVGMTTVTFDHWGQGTLVTVSS
notes: VHH-Fc fusion in assay
B6: TIGIT-SC94 (Fc fusion)
VHH: EVQLVESGGGLVQPGGSLRLSCAASGSSFSAYAMGWFRQAPGKEREFVSLINWSSGKTIYADSVKGRFTISADNSKNTAYLQMNSLKPEDTAVYYCARVRIFNHVHRPSYYFDYWGQGTLVTVSS
notes: VHH-Fc fusion in assay
B7: TIGIT-SC13 (Fc fusion)
VHH: EVQLVESGGGLVQPGGSLRLSCAASGRTFSFMGWFRQAPGKEREWVASVLRGGYTWYADSVKGRFTISADNSKNTAYLQMNSLKPEDTAVYYCATESMDYWGQGTLVTVSS
notes: VHH-Fc
B8: TIGIT-SC1 (Fc fusion)
VHH: EVQLVESGGGLVQPGGSLRLSCAASGFTLNDYAMGWFRQAPGKERELVAWIARYDGSTLYADSVKGRFTISADNSKNTAYLQMNSLKPEDTAVYYCARVDWALNAAPFDYWGQGTLVTVSS
notes: VHH-Fc
B9: TIGIT-SC95 (Fc fusion)
VHH: EVQLVESGGGLVQPGGSLRLSCAASGPTFSTNVMGWFRQAPGKEREFVSSIHWGGSSTVYADSVKGRFTISADNSKNTAYLQMNSLKPEDTAVYYCVTYSAYDFRNAWGQGTLVTVSS
notes: VHH-Fc
B10: TIGIT-SC7 (Fc fusion)
VHH: EVQLVESGGGLVQPGGSLRLSCAASGRSFSMYVMGWFRQAPGKEREGVSFISGSDGSTLYADSVKGRFTISADNSKNTAYLQMNSLKPEDTAVYYCARGSIAARPVFFDYWGQGTLVTVSS
notes: VHH-Fc
B11: TIGIT-SC5 (Fc fusion)
VHH: EVQLVESGGGLVQPGGSLRLSCAASGFAFGDSWMGWFRQAPGKEREWVASVLRGGYTWYADSVKGRFTISADNSKNTAYLQMNSLKPEDTAVYYCARESEGWFDPWGQGTLVTVSS
notes: VHH-Fc
B12: TIGIT-SC23 (Fc fusion)
VHH: B11 VHH with A28T, F29L, G30S, D31S, S32N, S99R, E100L
notes: VHH-Fc
B13: TIGIT-SC183 (Fc fusion)
VHH: B11 VHH with R97K, E98D, S99R, E100S, G101Y, W102S, P105Y
notes: VHH-Fc
B14: TIGIT-SC15 (Fc fusion)
VHH: EVQLVESGGGLVQPGGSLRLSCAASGSILSFNHIGWFRQAPGKEREGVAWIARYDGSTLYADSVKGRFTISADNSKNTAYLQMNSLKPEDTAVYYCARARGGYVDYWGQGTLVTVSS
notes: VHH-Fc
B15: TIGIT-SC60 (Fc fusion)
VHH: EVQLVESGGGLVQPGGSLRLSCAASGFTFSPSWMGWFRQAPGKEREWVASVLRGGYTWYADSVKGRFTISADNSKNTAYLQMNSLKPEDTAVYYCARDDLDYWGQGTLVTVSS
notes: VHH-Fc
B16: TIGIT-SC188 (Fc fusion)
VHH: B15 VHH with F27N, P31G, S32G, W33F, A96T, R97T, D99S, D101P, Y102G
notes: VHH-Fc
B17: TIGIT-SC2 (Fc fusion)
VHH: EVQLVESGGGLVQPGGSLRLSCAASGFTLSSNWMGWFRQAPGKEREMVAAIDWSGGSALYADSVKGRFTISADNSKNTAYLQMNSLKPEDTAVYYCAKDALSNSARFDHWGQGTLVTVSS
notes: VHH-Fc
B18: TIGIT-SC9 (Fc fusion)
VHH: EVQLVESGGGLVQPGGSLRLSCAASGNTFSGGFMGWFRQAPGKEREWVASVLRGGYTWYADSVKGRFTISADNSKNTAYLQMNSLKPEDTAVYYCVNGYSYGRDYWGQGTLVTVSS
notes: VHH-Fc
B19: TIGIT-SC10 (Fc fusion)
VHH: EVQLVESGGGLVQPGGSLRLSCAASGNTFSGGFMGWFRQAPGKEREWVASVLRGGYTWYADSVKGRFTISADNSKNTAYLQMNSLKPEDTAVYYCASDPWGTRYFDHWGQGTLVTVSS
notes: VHH-Fc
B20: TIGIT-SC61 (Fc fusion)
VHH: B19 VHH with A96T, S97R, D98G, P99D, W100T, G101A, T102M, R103A, Y104T, H107Y
notes: VHH-Fc
B21: TIGIT-SC21 (Fc fusion)
VHH: B19 VHH with S97R, D98G, P99G, W100A, T102S, R103D, Y104W, D106G, H107P
notes: VHH-Fc
B22: TIGIT-SC175 (Fc fusion)
VHH: EVQLVESGGGLVQPGGSLRLSCAASGNTFSGGFMGWFRQAPGKEREWVASVLRGGYTWYADSVKGRFTISADNSKNTAYLQMNSLKPEDTAVYYCTTDALRFLEWPWWGQGTLVTVSS
notes: VHH-Fc
B23: TIGIT-SC16 (Fc fusion)
VHH: EVQLVESGGGLVQPGGSLRLSCAASGTTFSSAAMGWFRQAPGKEREWVASVLRGGYTWYADSVKGRFTISADNSKNTAYLQMNSLKPEDTAVYYCARDPVELGDYWGQGTLVTVSS
notes: VHH-Fc
B24: TIGIT-SC4 (Fc fusion)
VHH: EVQLVESGGGLVQPGGSLRLSCAASGSIDRINAMGWFRQATGKEREWVASVLRGGYTWYADSVKGRFTISADNSKNTAYLQMNSLKPEDTAVYYCARDSYSTSFWFDPWGQGTLVTVSS
notes: VHH-Fc
B25: TIGIT-SC156 (Fc fusion)
VHH: EVQLVESGGGLVQPGGSLRLSCAASGNTFSGGFMGWFRQAPGKEREWVASVLRGGYTWYADSVKGRFTISADNSKNTAYLQMNSLKPEDTAVYYCTTEGYDFWSGYYDYWGQGTLVTVSS
notes: VHH-Fc
B26: TIGIT-SC162 (Fc fusion)
VHH: EVQLVESGGGLVQPGGSLRLSCAASGNTFSGGFMGWFRQAPGKEREWVASVLRGGYTWYADSVKGRFTISADNSKNTAYLQMNSLKPEDTAVYYCTTDRAIGVRPLFDHWGQGTLVTVSS
notes: VHH-Fc
B27: TIGIT-SC6 (Fc fusion)
VHH: EVQLVESGGGLVQPGGSLRLSCAASGNTFSGGFMGWFRQAPGKEREWVASVLRGGYTWYADSVKGRFTISADNSKNTAYLQMNSLKPEDTAVYYCAISPVAWHAKFDSWGQGTLVTVSS
notes: VHH-Fc
B28: TIGIT-SC3 (Fc fusion)
VHH: EVQLVESGGGLVQPGGSLRLSCAASGTFQRINAMGWFRQAPGKEREFVSTINWSGSNTYYADSVKGRFTISADNSKNTAYLQMNSLKPEDTAVYYCASSYSSSSGLGDIWGQGTLVTVSS
notes: VHH-Fc
B29: TIGIT-SC14 (Fc fusion)
VHH: EVQLVESGGGLVQPGGSLRLSCAASGSISSIHAMGWFRQAPGKEREFVATISRSGVGTFYADSVKGRFTISADNSKNTAYLQMNSLKPEDTAVYYCASSYSSSSGLGDIWGQGTLVTVSS
notes: VHH-Fc
B30: TIGIT-SC8 (Fc fusion)
VHH: EVQLVESGGGLVQPGGSLRLSCAASGFAFSSYAMGWFRQAPGKEREFVARITWNGGSAYYADSVKGRFTISADNSKNTAYLQMNSLKPEDTAVYYCAAGATGWFDPWGQGTLVTVSS
notes: VHH-Fc
B31: TIGIT-SC12 (Fc fusion)
VHH: EVQLVESGGGLVQPGGSLRLSCAASGRTFSAYGMGWFRQAPGKEREFVAAITPSSRTTYYADSVKGRFTISADNSKNTAYLQMNSLKPEDTAVYYCAKDNWGEWLMPWWGQGTLVTVSS
notes: VHH-Fc

target: T1, recombinant human TIGIT; experiment: SPR Carterra, average
Method: Binding affinities of VHH-Fc proteins to recombinant human TIGIT were measured by SPR using a Carterra instrument (Table 10A). […] Average values reported from measurements from 1-2 samples.

Binder	Kd [nM]	koff [s⁻¹]	kon [M⁻¹ s⁻¹]
B1	1320	0.16	121000
B2	1470	0.155	106000
B3	625	0.0934	93800
B4	1060	0.24	226000
B5	903	0.151	167000
B6	549	0.027	49200

target: T2, human TIGIT-Fc; experiment: CD155 competition ELISA, single point; further: test concentration or dose not given here
Method: TIGIT/CD155 inhibition of VHH-Fcs were assessed using an ELISA assay (Table 10B). Briefly, human TIGIT-Fc was coated on a plate & then incubated with VHH-Fcs and human CD155-biotin. Bound CD155-biotin was detected using a streptavidin-HRP conjugate visualized with TMB. Strong inhibitors from the single point screen were titrated to determine EC50 (Table 10C).

Binder	OD (450 nm) [OD]
B7	0.666
B8	0.649
B9	0.613
B10	0.735
B11	0.564
B12	0.424
B13	0.5
B14	0.576
B15	0.349
B16	0.524
B17	0.407
B18	0.756
B19	0.756
B20	0.343
B21	0.607
B22	0.59
B23	0.471
B24	0.579
B25	0.701
B26	0.423
B27	0.558
B28	0.748
B29	0.61
B30	0.817
B31	0.622
